Experimental findings from article PMC11189301, “Structure of the human outer kinetochore KMN network complex” (Nature Structural & Molecular Biology, 2024) are described below.

B6: Dsn1 (natural protein, Homo sapiens, UniProt Q9H410 1-356, looked up)
chain: MTSVTRSEIIDEKGPVMSKTHDHQLESSLSPVEVFAKTSASLEMNQGVSEERIHLGSSPKKGGNCDLSHQERLQSKSLHLSPQEQSASYQDRRQSWRRASMKETNRRKSLHPIHQGITELSRSISVDLAESKRLGCLLLSSFQFSIQKLEPFLRDTKGFSLESFRAKASSLSEELKHFADGLETDGTLQKCFEDSNGKASDFSLEASVAEMKEYITKFSLERQTWDQLLLHYQQEAKEILSRGSTEAKITEVKVEPMTYLGSSQNEVLNTKPDYQKILQNQSKVFDCMELVMDELQGSVKQLQAFMDESTQCFQKVSVQLGKRSMQQLDPSPARKLLKLQLQNPPAIHGSGSGSCQ
notes: Dsn1, subunit of human MIS12C; Subunit within the KMN network cryo-EM sample; residues N-terminal to Arg92 are disordered; source: High-5 insect cells, expressed and purified as part of MIS12C
B7: Nsl1 (natural protein, Homo sapiens, UniProt Q96IY1 1-281, looked up)
chain: MAGSPELVVLDPPWDKELAAGTESQALVSATPREDFRVRCTSKRAVTEMLQLCGRFVQKLGDALPEEIREPALRDAQWTFESAVQENISINGQAWQEASDNCFMDSDIKVLEDQFDEIIVDIATKRKQYPRKILECVIKTIKAKQEILKQYHPVVHPLDLKYDPDPAPHMENLKCRGETVAKEISEAMKSLPALIEQGEGFSQVLRMQPVIHLQRIHQEVFSSCHRKPDAKPENFITQIETTPTETASRKTSDMVLKRKQTKDCPQRKWYPLRPKKINLDT
notes: Nsl1, subunit of human MIS12C; Subunit within the KMN network cryo-EM sample; source: High-5 insect cells, expressed and purified as part of MIS12C

The series “Nsl1” deals with B7. The series can be described thus: cryo-EM structure; NDC80C, MIS12C and KNL1C mixed 1:1:1 and run on Superose 6 in 20 mM HEPES pH 8.0, 80 mM NaCl, 1 mM MgCl2, 1 mM TCEP; about 1 mg/ml on UltrAuFoil grids; 3.0 Å (MIS12C heads 3.8 Å). As to conditions: both partners purified.
For a further series, the target named is T1, Knl1 residues 1870–2342 (human, UniProt Q8NG31 1870-2342).
T1 construct: Knl1, human, 2,342-residue protein, residues 1870-2342; coordinates traced R2097–H2342; Subunit within the KMN network cryo-EM sample; also called extended version of the Knl1 C terminus; source: High-5 insect cells, expressed and purified as part of KNL1C
T1 sequence (looked up): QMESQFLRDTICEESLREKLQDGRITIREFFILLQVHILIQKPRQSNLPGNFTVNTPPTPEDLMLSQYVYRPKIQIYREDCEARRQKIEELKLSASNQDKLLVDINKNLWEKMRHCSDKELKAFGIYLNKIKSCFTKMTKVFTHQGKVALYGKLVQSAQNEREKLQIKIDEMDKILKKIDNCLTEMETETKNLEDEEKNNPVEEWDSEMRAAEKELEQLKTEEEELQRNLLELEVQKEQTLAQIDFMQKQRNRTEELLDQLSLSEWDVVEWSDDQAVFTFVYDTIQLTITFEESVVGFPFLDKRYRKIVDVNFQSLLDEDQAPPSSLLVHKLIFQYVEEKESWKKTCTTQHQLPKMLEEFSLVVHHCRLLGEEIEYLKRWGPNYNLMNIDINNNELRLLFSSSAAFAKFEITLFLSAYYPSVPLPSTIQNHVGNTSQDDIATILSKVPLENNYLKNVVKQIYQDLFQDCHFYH
Described as above. As to conditions: both partners purified.

A further series relates to MIS12C. The series can be described thus: SEC assessment of Knl1 mutants binding to MIS12C. Also on record: species or system Homo sapiens. As to conditions: Knl1 (2131–2337) mutant + MIS12C at 4 µM each, 20 mM HEPES pH 7.8, 150 mM NaCl, 0.5 mM TCEP, Superose 6, at least two repeats. The protocol:
Assessment of substitutions in the MIS12C–KNL1 interfaces
To test the effect of substitutions in the MIS12C–KNL1 interfaces, either wild-type MIS12C or MIS12C^Nsl1ΔC was mixed with either wild-type KNL1 or two mutants (KNL1^R2248D […] (KNL1^mut1), KNL1^S2270R S2272W (KNL1^mut2)) at 4 µM each in a buffer of 20 mM HEPES (pH 7.8), 150 mM NaCl and 0.5 mM TCEP, and 50 µl was loaded onto a Superose 6 size-exclusion column (Cytiva).
Extended Data Fig. 9 Biochemical validation of the MIS12C:Knl1 interface. a Coomassie blue-stained SDS-PAGE gels of the MIS12C:Knl1 interaction reconstitutions. MIS12C (WT) and MIS12C with Nsl1 truncated at the C-terminus (1–264 Nsl1 construct, MIS12C^Nsl1ΔC) were tested in their ability to bind either wild-type RWD domains of Knl1 (2131–2337 construct, labelled Knl1 for simplicity) or Knl1 mutants (R2248D/W2249S substitutions, Knl1^mut1, and S2270R/S2272W substitutions, Knl1^mut2, as well as S2270R/S2272W/R2248A/W2249S substitutions, Knl1^mut3). The binding experiments were repeated at least two independent times with identical results. The gels are aligned according to the fraction number of the protein sample eluted from the size exclusion column. b SEC elution chromatograms of all of the experiments described in (a). Source data

For the series “Dsn1”, the target named is B6. The series can be described thus: cryo-EM structure; NDC80C, MIS12C and KNL1C mixed 1:1:1 and run on Superose 6 in 20 mM HEPES pH 8.0, 80 mM NaCl, 1 mM MgCl2, 1 mM TCEP; about 1 mg/ml on UltrAuFoil grids; 3.0 Å (MIS12C heads 3.8 Å). As to conditions: both partners purified.

B1: ZWINT (natural protein, human, UniProt O95229 1-277, looked up)
chain: MEAAETEAEAAALEVLAEVAGILEPVGLQEEAELPAKILVEFVVDSQKKDKLLCSQLQVADFLQNILAQEDTAKGLDPLASEDTSRQKAIAAKEQWKELKATYREHVEAIKIGLTKALTQMEEAQRKRTQLREAFEQLQAKKQMAMEKRRAVQNQWQLQQEKHLQHLAEVSAEVRERKTGTQQELDRVFQKLGNLKQQAEQERDKLQRYQTFLQLLYTLQGKLLFPEAEAEAENLPDDKPQQPTRPQEQSTGDTMGRDPGVSFKAVGLQPAGDVNLP
notes: ZWINT, human; coordinates traced Q183–G221; Subunit within the KMN network cryo-EM sample; source: High-5 insect cells, expressed and purified as part of KNL1C
With B1, the binding result with Nsl1 and with Knl1 residues 1870–2342 was “binds” throughout.

B2: Knl1^mut2: Knl1 (2131–2337 construct) with S2270R S2272W substitutions (protein)
chain: SLSEWDVVEWSDDQAVFTFVYDTIQLTITFEESVVGFPFLDKRYRKIVDVNFQSLLDEDQAPPSSLLVHKLIFQYVEEKESWKKTCTTQHQLPKMLEEFSLVVHHCRLLGEEIEYLKRWGPNYNLMNIDINNNELRLLFRSWAAFAKFEITLFLSAYYPSVPLPSTIQNHVGNTSQDDIATILSKVPLENNYLKNVVKQIYQDLFQD
modifications: left off: His6, N-terminal, cleaved
notes: Knl1 (2131–2337 construct) with S2270R S2272W substitutions
With B2, the entries for the “MIS12C–Knl1 interaction by SEC, in words” value with MIS12C and in the series on MIS12C (listed as Knl1mut2) were “did not importantly disrupt MIS12C–Knl1 interactions” and “does not appear to reduce interaction with MIS12C”, respectively.

B3: Knl1^mut1: Knl1 (2131–2337 construct) with R2248D W2249A substitutions (protein, UniProt Q8NG31 2131-2337, looked up, variant R2248D W2249A)
chain: SLSEWDVVEWSDDQAVFTFVYDTIQLTITFEESVVGFPFLDKRYRKIVDVNFQSLLDEDQAPPSSLLVHKLIFQYVEEKESWKKTCTTQHQLPKMLEEFSLVVHHCRLLGEEIEYLKDAGPNYNLMNIDINNNELRLLFSSSAAFAKFEITLFLSAYYPSVPLPSTIQNHVGNTSQDDIATILSKVPLENNYLKNVVKQIYQDLFQD
For B3, the “MIS12C–Knl1 interaction by SEC, in words” value in the series with MIS12C was “did not importantly disrupt MIS12C–Knl1 interactions”.

B4: Knl1^mut3: Knl1 (2131–2337 construct) with S2270R S2272W R2248A W2249A substitutions (protein, UniProt Q8NG31 2131-2337, looked up, variant S2270R S2272W R2248A W2249A)
chain: SLSEWDVVEWSDDQAVFTFVYDTIQLTITFEESVVGFPFLDKRYRKIVDVNFQSLLDEDQAPPSSLLVHKLIFQYVEEKESWKKTCTTQHQLPKMLEEFSLVVHHCRLLGEEIEYLKAAGPNYNLMNIDINNNELRLLFRSWAAFAKFEITLFLSAYYPSVPLPSTIQNHVGNTSQDDIATILSKVPLENNYLKNVVKQIYQDLFQD
As to B4, in the series with MIS12C, the “MIS12C–Knl1 interaction by SEC, in words” value is on record as “little to no change in the interaction”.

B5: Spc25 (natural protein, Homo sapiens, UniProt Q9HBM1 1-224, looked up)
chain: MVEDELALFDKSINEFWNKFKSTDTSCQMAGLRDTYKDSIKAFAEKLSVKLKEEERMVEMFLEYQNQISRQNKLIQEKKDNLLKLIAEVKGKKQELEVLTANIQDLKEEYSRKKETISTANKANAERLKRLQKSADLYKDRLGLEIRKIYGEKLQFIFTNIDPKNPESPFMFSLHLNEARDYEVSDSAPHLEGLAEFQENVRKTNNFSAFLANVRKAFTATVYN
notes: Spc25, subunit of human NDC80C; coordinates traced D80–N224; Subunit within the KMN network cryo-EM sample; source: High-5 insect cells, expressed and purified as part of NDC80C
As for B5, the binding result in the series with Dsn1 and with Nsl1 was “binds” throughout.

With B6, the binding result with Knl1 residues 1870–2342 was “binds”.

As for B7, the binding result in the series with Dsn1 and in the series with Knl1 residues 1870–2342 was “binds” throughout.

B8: Mis12 (natural protein, Homo sapiens, UniProt Q9H081 1-205, looked up)
chain: MSVDPMTYEAQFFGFTPQTCMLRIYIAFQDYLFEVMQAVEQVILKKLDGIPDCDISPVQIRKCTEKFLCFMKGHFDNLFSKMEQLFLQLILRIPSNILLPEDKCKETPYSEEDFQHLQKEIEQLQEKYKTELCTKQALLAELEEQKIVQAKLKQTLTFFDELHNVGRDHGTSDFRESLVSLVQNSRKLQNIRDNVEKESKRLKIS
notes: Mis12, subunit of human MIS12C; Subunit within the KMN network cryo-EM sample; source: High-5 insect cells, expressed and purified as part of MIS12C
Regarding B8, the binding result with Dsn1 and with Nsl1 was “binds” in each case.
